Data reported in publication PMC10166511, “Fast cross-linking by DOPA2 promotes the capturing of a stereospecific protein complex over nonspecific encounter complexes” (Biophysics Reports, 2022).

Molecular target: T1, EIIA^Glc (UniProt P69783 2-169)
T1 construct: EIIA^Glc, functional subunit of Enzyme II of the bacterial glucose phosphotransferase system; Species is stated only for enzyme I (E. coli); source: purified as previously described (Garrett et al. 1999; Xing et al. 2014)
Assay: SPR + ELISA; no accurate KD obtained; format and conditions not told
Details: both partners purified

T1 sequence (P69783 2-169): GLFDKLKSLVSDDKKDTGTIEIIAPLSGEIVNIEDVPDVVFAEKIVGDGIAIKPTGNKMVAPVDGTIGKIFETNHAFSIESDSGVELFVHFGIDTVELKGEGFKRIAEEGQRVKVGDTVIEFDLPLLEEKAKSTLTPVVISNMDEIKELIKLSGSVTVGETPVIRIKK

Kd: > 10 µM
B1: EIIB^Glc (domain or fragment)
chain: EDATEDAKATGTSEMAPALVAAFGGKENITNLDACITRLRVSVADVSKVDQAGLKKLGAAGVVVAGSGVQAIFGTKSDNLKTEMDEYIRN
notes: EIIB^Glc, functional subunit of Enzyme II of the bacterial glucose phosphotransferase system; Species is stated only for enzyme I (E. coli); source: purified as previously described (Garrett et al. 1999; Xing et al. 2014)
